# The nanobody polyreactivity screen of Harvey et al. (2022)
# Assay: yeast display, Sf9 membrane polyspecificity reagent, FACS + sequencing; frameworks hold sequencing errors
# Outline: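 Galactose induction of a Saccharomyces cerevisiae BJ5465 synthetic nanobody display library ran 36–48 hours. The cells were then stained for 1 hour at 4 °C with 10% biotinylated, detergent-solubilized Sf9 membrane reagent, pulled down on streptavidin microbeads and FACS-sorted into low and high (top ~1%) gates on expression and reagent-binding fluorescence. Labels for polyreactivity follow the gate of origin.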
row,Sequence,polyreactivity (PSR sort gate)
1,QVQLVESAGGLVQAGGSLRLSCAASGNTFYPYAMGWYRQAPGKERELVAAITSVGRTYYADSVKGRFTITRDNAKNTVYLQMNSLKPEDTAVYYCAAVVYYRGYTYNYWGQGTQVTVSS,high polyreactivity
2,QVQLVESAGGLVQAGGSLRLSCAASGRIFRYNAMGWYRPAPGKERELVAAISSIGGRTYYADTVKGRFTISRDNAKNTVYLQMYSLKPEDTAVYSCNARGYLSRSHMHEYDYWGQGTQVTVSS,high polyreactivity
3,QVQLVESAGGLVQAGGSLRLSCAASGRIFSIYAMGWSRQAPGKERELVAAIRRGGSTSYADSVKGRFTISRDNAKNTVYLQMNSLKPEDTAVYYCAARLRYLGYDFWGQGTQVTVSS,high polyreactivity
4,QVQLVESAGGLVQAGGSLRLSCAASGRIFVRYAKGRYREAPGKVRELVAAISSSGSSTYYADSVKRRFTISRDNASNTVYLQMNSLKPEDTAVYYCNAVPSVRWRYDYWGQGTQVTVSS,high polyreactivity
5,QVQLVESAGGLVQAGGSLRLSCAASGRNFVDYAMGWYRQAPGKERELVAAITQRGGSTYYADSVKGRFTISRDNAKNTVYLQMNSLKPEDTAVYYCAAVTRFYTKYYWGQGTQVTVSS,high polyreactivity
6,QVQLVESAGGLVQAGGSLRLSCAASGRTIRWYTMGWYRQAPGKERELVAGISSSGGSTYYADSVKGRFTISRDTAKNTVYLQMNSLKPEDTAVYYCNVVTWYYVFRPWEYDYWGQGTQVTVSS,low polyreactivity
7,QVQLVESAGGLVQAGGSLRLSCAASGSIFVYNTMGWYRQAPGKERELVASITYSGGSTYYADSVKGRFTISRDNAKNTVYLQMNSLKPEDTAVYYCNTDDVALQWDWYPYPYDYWGQGTQVTVSS,low polyreactivity
8,QVQLVESAGGLVQAGGSLRLSCAASGSNFGDYPLGWYRQAPGKERELVAAISVRGGSTYYADSVKGRFTISRDNAKITVYLQMKSLKPEDTAVYYCNKDLYRYPGYDYWGHGTQVTVSS,high polyreactivity
9,QVQLVESAGGLVQAGGSLRLSCAASGSTFLIYALGCYRHAPGKERELVAAITVSGGDTYYADSVKGRFTISRDNAKNTVYLQMNSLKPEDTAVYYCAAEGGNDYSSVDAGISYDYWGQGTKVTVSS,low polyreactivity
10,QVQLVESAGGLVQAGGSLRLSCAASGSTFWLYAMGWYRQAPGKERELVAAISYTGTSTYYADSVKGRFTISRDNAKNTVYLQMNSLKPEDTAVYDCAADFVGLVTGYDYSWGQGTQVTVSS,low polyreactivity
11,QVQLVESAGGLVQAGGSLRLSCAASGSTIYGCVMGWYRHAPGKERELVAGITRGGSTNYADSVKGRFTISRDNAKNTVYLQMNSLKPEDTAVYYCATRYFSRYYYWGQGTQVTVSS,high polyreactivity
12,QVQLVESAGGLVQAGGSLRLSCAASGTFYYYAMGWYRQAPGKERELVAAISNGDSTTYADSVKGRFTISRDNAKNTVYLQMNSLNPEDTAVYYCAAYRYTPRTSRGYYYWGQGTQVTVSS,low polyreactivity
13,QVQLVESAGGLVQAGGSLRLSCAASGYTISYANAMGWYRQAPGKERELVASISSTGGRTYYADSVKGRFTISRDNAKNTVYLQMNSLKPEDTAVYYCASRYWRYGYWGQGTQVTVSS,high polyreactivity
14,QVQLVESAGGLVQAGGSLRLSCAASVSIFFIYARGWYRQAPGKERELVATISRSDVSTFYGDSVKGRFTISRDNAKNTVYLQMNSLKPEDTAVYYCAAEWSPPEPIQLYGYWGQGTQVTVSS,high polyreactivity
15,QVQLVESAGGLVQAGGSLRLSCAASVSTIAPNAMGWYRQAPGKERELVASIRRGGSTHYADSVKGSFTISRDNAKNTVYLQMNSLKPEDTAVYYCAKDVWRHYLNLYDYWGQGTQVTLSS,low polyreactivity
16,QVQLVESAGGLVQAGGSLRLSCDASGRIFQRNAMGWYRQEPGKERQFVAAISSRGGTTYYADSVKGRFTISRDNAKNTVYLQMNSLKQEDNAVYYCAAGYVHLYYFHEYYWGQGTQVTVSS,high polyreactivity
17,QVQLVESAGGLVQAGGSLRLSCGASGRIFGWYALGWSRQAPGKERQLVAAITRSGGSTFYADSVKGRFTISRDNAKNTVYLQMHSLKPDDTAVYYCNARYFNGRHKHYYWGQGTQVTVSS,high polyreactivity
